Assay results reported in IntAct's records for PubMed 29039417.

B1: Protein PTHB1 (Homo sapiens), Q3SYG4 (parent)
chain: MSLFKARDWWSTILGDKEEFDQGCLCLANVDNSGNGQDKIIVGSFMGYLRIFSPHPAKTGDGAQAEDLLLEVDLRDPVLQVEVGKFVSGTEMLHLAVLHSRKLCVYSVSGTLGNVEHGNQCQMKLMYEHNLQRTACNMTYGSFGGVKGRDLICIQSMDGMLMVFEQESYAFGRFLPGFLLPGPLAYSSRTDSFLTVSSCQQVESYKYQVLAFATDADKRQETEQQKLGSGKRLVVDWTLNIGEQALDICIVSFNQSASSVFVLGERNFFCLKDNGQIRFMKKLDWSPSCFLPYCSVSEGTINTLIGNHNNMLHIYQDVTLKWATQLPHIPVAVRVGCLHDLKGVIVTLSDDGHLQCSYLGTDPSLFQAPNVQSRELNYDELDVEMKELQKIIKDVNKSQGVWPMTEREDDLNVSVVVSPNFDSVSQATDVEVGTDLVPSVTVKVTLQNRVILQKAKLSVYVQPPLELTCDQFTFEFMTPDLTRTVSFSVYLKRSYTPSELEGNAVVSYSRPTDRNPDGIPRVIQCKFRLPLKLICLPGQPSKTASHKITIDTNKSPVSLLSLFPGFASQSDDDQVNVMGFHFLGGARITVLASKTSQRYRIQSEQFEDLWLITNELILRLQEYFEKQGVKDFACSFSGSIPLQEYFELIDHHFELRINGEKLEELLSERAVQFRAIQRRLLARFKDKTPAPLQHLDTLLDGTYKQVIALADAVEENQGNLFQSFTRLKSATHLVILLIALWQKLSADQVAILEAAFLPLQEDTQELGWEETVDAAISHLLKTCLSKSSKEQALNLNSQLNIPKDTSQLKKHITLLCDRLSKGGRLCLSTDAAAPQTMVMPGGCTTIPESDLEERSVEQDSTELFTNHRHLTAETPRPEVSPLQGVSE
partner: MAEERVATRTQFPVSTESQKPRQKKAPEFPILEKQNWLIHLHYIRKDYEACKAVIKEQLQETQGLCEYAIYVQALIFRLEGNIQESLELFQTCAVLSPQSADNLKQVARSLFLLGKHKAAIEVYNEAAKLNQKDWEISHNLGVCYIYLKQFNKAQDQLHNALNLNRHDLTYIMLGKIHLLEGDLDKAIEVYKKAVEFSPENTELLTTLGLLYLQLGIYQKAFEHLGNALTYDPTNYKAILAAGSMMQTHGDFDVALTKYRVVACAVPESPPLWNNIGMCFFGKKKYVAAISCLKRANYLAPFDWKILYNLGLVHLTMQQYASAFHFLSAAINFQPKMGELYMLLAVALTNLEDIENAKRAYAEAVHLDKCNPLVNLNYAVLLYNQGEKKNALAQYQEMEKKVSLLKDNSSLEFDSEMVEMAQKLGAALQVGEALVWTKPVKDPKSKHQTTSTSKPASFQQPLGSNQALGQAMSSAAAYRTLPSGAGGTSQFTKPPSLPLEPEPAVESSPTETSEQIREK

Variants of: B1
Details: with bbs4_human BBS4, Q96RK4
With Q760A the “effect of a mutation on the interaction” value was “with no effect”. With I776E the “effect of a mutation on the interaction” value was “with no effect”. In the case of C535K, the “effect of a mutation on the interaction” value is reported as “with no effect”. For G718D, the “effect of a mutation on the interaction” value was “disrupting interaction strength”. For L740A, the “effect of a mutation on the interaction” value was “with no effect”. N448A was tested, and the “effect of a mutation on the interaction” value was “with no effect”. With V413K the “effect of a mutation on the interaction” value was “with no effect”. For P881A, the “effect of a mutation on the interaction” value was “with no effect”. In the case of T549K, the “effect of a mutation on the interaction” value is reported as “with no effect”. In the case of T697A, the “effect of a mutation on the interaction” value is reported as “with no effect”. F474K was tested, and the “effect of a mutation on the interaction” value was “with no effect”. L436E was tested, and the “effect of a mutation on the interaction” value was “with no effect”. For L465K, the “effect of a mutation on the interaction” value was “disrupting interaction strength”. For N866E, the “effect of a mutation on the interaction” value was “with no effect”. L446E was tested, and the “effect of a mutation on the interaction” value was “with no effect”. I812K was tested, and the “effect of a mutation on the interaction” value was “with no effect”. With R818T the “effect of a mutation on the interaction” value was “disrupting interaction strength”. In the case of T445K, the “effect of a mutation on the interaction” value is reported as “with no effect”. With T445A the “effect of a mutation on the interaction” value was “with no effect”. L665R was tested, and the “effect of a mutation on the interaction” value was “disrupting interaction strength”. L665K was tested, and the “effect of a mutation on the interaction” value was “with no effect”. For H581A, the “effect of a mutation on the interaction” value was “with no effect”. For V856K, the “effect of a mutation on the interaction” value was “with no effect”. With T552A the “effect of a mutation on the interaction” value was “with no effect”. With L692A the “effect of a mutation on the interaction” value was “disrupting interaction strength”. In the case of L692E, the “effect of a mutation on the interaction” value is reported as “with no effect”. In the case of T434A, the “effect of a mutation on the interaction” value is reported as “with no effect”. In the case of K630E, the “effect of a mutation on the interaction” value is reported as “with no effect”. With F487K the “effect of a mutation on the interaction” value was “with no effect”. With F487A the “effect of a mutation on the interaction” value was “with no effect”. In the case of Q605A, the “effect of a mutation on the interaction” value is reported as “with no effect”. C469A was tested, and the “effect of a mutation on the interaction” value was “with no effect”. In the case of C469E, the “effect of a mutation on the interaction” value is reported as “with no effect”. I801K was tested, and the “effect of a mutation on the interaction” value was “with no effect”. In the case of I801A, the “effect of a mutation on the interaction” value is reported as “disrupting interaction strength”. With D571A the “effect of a mutation on the interaction” value was “with no effect”. In the case of S498A, the “effect of a mutation on the interaction” value is reported as “with no effect”. For Q677K, the “effect of a mutation on the interaction” value was “with no effect”. In the case of S797A, the “effect of a mutation on the interaction” value is reported as “with no effect”. For S828A, the “effect of a mutation on the interaction” value was “with no effect”. P847A was tested, and the “effect of a mutation on the interaction” value was “with no effect”. With P847E the “effect of a mutation on the interaction” value was “with no effect”. For D850K, the “effect of a mutation on the interaction” value was “with no effect”. With I519E the “effect of a mutation on the interaction” value was “with no effect”. For L500A, the “effect of a mutation on the interaction” value was “with no effect”. For L500K, the “effect of a mutation on the interaction” value was “with no effect”. R868A was tested, and the “effect of a mutation on the interaction” value was “with no effect”. For T805K, the “effect of a mutation on the interaction” value was “with no effect”. In the case of G565R, the “effect of a mutation on the interaction” value is reported as “disrupting interaction strength”. In the case of G565K, the “effect of a mutation on the interaction” value is reported as “with no effect”. With G565A the “effect of a mutation on the interaction” value was “with no effect”. With R674W the “effect of a mutation on the interaction” value was “disrupting interaction strength”. With N800K the “effect of a mutation on the interaction” value was “with no effect”. With L609E the “effect of a mutation on the interaction” value was “with no effect”. For L609K, the “effect of a mutation on the interaction” value was “with no effect”. In the case of F632A, the “effect of a mutation on the interaction” value is reported as “with no effect”. With F632E the “effect of a mutation on the interaction” value was “with no effect”. T844A was tested, and the “effect of a mutation on the interaction” value was “with no effect”. In the case of F724E, the “effect of a mutation on the interaction” value is reported as “disrupting interaction strength”. In the case of L680E, the “effect of a mutation on the interaction” value is reported as “with no effect”. For L870A, the “effect of a mutation on the interaction” value was “with no effect”. For P438A, the “effect of a mutation on the interaction” value was “with no effect”. For A832K, the “effect of a mutation on the interaction” value was “with no effect”. For A832E, the “effect of a mutation on the interaction” value was “with no effect”. L814A was tested, and the “effect of a mutation on the interaction” value was “with no effect”. L533A was tested, and the “effect of a mutation on the interaction” value was “with no effect”. With L481K the “effect of a mutation on the interaction” value was “with no effect”. With M837I the “effect of a mutation on the interaction” value was “disrupting interaction strength”. M837K was tested, and the “effect of a mutation on the interaction” value was “with no effect”. R600G was tested, and the “effect of a mutation on the interaction” value was “disrupting interaction strength”. For S418K, the “effect of a mutation on the interaction” value was “with no effect”. With A712K the “effect of a mutation on the interaction” value was “with no effect”. With S494K the “effect of a mutation on the interaction” value was “with no effect”. For L699A, the “effect of a mutation on the interaction” value was “with no effect”. In the case of C826K, the “effect of a mutation on the interaction” value is reported as “with no effect”. For D650E, the “effect of a mutation on the interaction” value was “with no effect”. In the case of Q672K, the “effect of a mutation on the interaction” value is reported as “with no effect”. With L467E the “effect of a mutation on the interaction” value was “with no effect”. K728R was tested, and the “effect of a mutation on the interaction” value was “disrupting interaction strength”. D762A was tested, and the “effect of a mutation on the interaction” value was “with no effect”. For V415A, the “effect of a mutation on the interaction” value was “with no effect”. For Q748L, the “effect of a mutation on the interaction” value was “disrupting interaction strength”. In the case of Q748K, the “effect of a mutation on the interaction” value is reported as “disrupting interaction strength”. For Y508K, the “effect of a mutation on the interaction” value was “with no effect”. V450K was tested, and the “effect of a mutation on the interaction” value was “with no effect”. With R598E the “effect of a mutation on the interaction” value was “with no effect”. In the case of R598K, the “effect of a mutation on the interaction” value is reported as “with no effect”.
